Test results as given in patent publication US20110172153A1 (GENERAL HOSPITAL, published 2011).
Square brackets hold non-standard residues; d marks the D form. Ends that are not written are not given here. hArg = N=C(N)NCCCC[C@H](N)C(=O)O; Aib = CC(C)(N)C(=O)O

T1: human parathyroid hormone receptor (PTHR) (human, UniProt Q03431 27-593)
T1 construct: Assayed in membranes of HKRK-B7 cells or of transiently transfected COS-7 cells, or on intact HKRK-B7/HKRK-B64/COS-7 cells; RG = co-transfected with negative-dominant Galpha-s; R0 = receptor alone plus GTPgammaS; also called hPTHR; human PTH receptor
T1 sequence: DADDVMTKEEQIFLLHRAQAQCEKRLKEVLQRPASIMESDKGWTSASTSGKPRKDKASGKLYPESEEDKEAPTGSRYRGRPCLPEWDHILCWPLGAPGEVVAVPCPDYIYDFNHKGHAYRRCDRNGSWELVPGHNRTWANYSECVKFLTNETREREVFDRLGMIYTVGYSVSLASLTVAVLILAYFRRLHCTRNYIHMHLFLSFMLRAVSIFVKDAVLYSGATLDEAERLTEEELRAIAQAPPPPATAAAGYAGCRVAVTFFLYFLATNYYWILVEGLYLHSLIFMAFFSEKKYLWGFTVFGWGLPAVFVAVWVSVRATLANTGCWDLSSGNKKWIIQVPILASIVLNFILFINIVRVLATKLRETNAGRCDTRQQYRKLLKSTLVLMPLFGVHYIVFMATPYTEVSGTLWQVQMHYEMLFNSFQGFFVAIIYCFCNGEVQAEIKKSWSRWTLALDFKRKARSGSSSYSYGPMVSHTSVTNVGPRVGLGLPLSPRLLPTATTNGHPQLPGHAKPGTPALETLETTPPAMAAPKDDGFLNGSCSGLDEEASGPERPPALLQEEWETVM

T2: rat parathyroid hormone receptor (PTHR) (rat, UniProt P25961 27-591)
T2 sequence: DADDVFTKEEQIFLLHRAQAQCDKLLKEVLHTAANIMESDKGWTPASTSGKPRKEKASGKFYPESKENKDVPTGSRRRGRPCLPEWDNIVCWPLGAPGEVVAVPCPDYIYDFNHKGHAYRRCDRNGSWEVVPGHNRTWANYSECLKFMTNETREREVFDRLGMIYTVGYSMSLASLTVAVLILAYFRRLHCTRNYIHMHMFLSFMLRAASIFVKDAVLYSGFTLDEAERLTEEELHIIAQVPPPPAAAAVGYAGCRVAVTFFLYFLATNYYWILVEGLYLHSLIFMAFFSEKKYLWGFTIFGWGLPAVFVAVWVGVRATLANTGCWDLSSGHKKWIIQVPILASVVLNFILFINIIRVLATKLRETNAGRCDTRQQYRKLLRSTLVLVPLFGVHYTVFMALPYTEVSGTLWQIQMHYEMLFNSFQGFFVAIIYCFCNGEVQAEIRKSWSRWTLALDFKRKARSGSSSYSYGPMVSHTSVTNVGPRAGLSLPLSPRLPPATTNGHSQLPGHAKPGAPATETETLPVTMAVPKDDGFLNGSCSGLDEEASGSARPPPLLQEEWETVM

B1: [A1,3,23,Q10,R11]-PTH(1-34)OH (peptide)
peptide: AVAEIQLMHQRGKHLNSMERVEALRKKLQDVHNF-OH
notes: also called [A^1,A^3,A^23,Q^10,R^11]-PTH(1-34)OH; [A1,3,23,Q10,R11]-hPTH(1-34)
B2: [Ala^1,12,Aib^3,Gln^10,homoarginine^11,Trp^14,Arg^19]human(h)PTH(1-28)NH2 (peptide)
peptide: AV[Aib]EIQLMHQ[hArg]AKWLNSMRRVEWLRKKL-NH2
modifications: N-terminus assumed
SMILES: CC[C@H](C)[C@H](NC(=O)[C@H](CCC(=O)O)NC(=O)C(C)(C)NC(=O)[C@@H](NC(=O)[C@H](C)N)C(C)C)C(=O)N[C@@H](CCC(N)=O)C(=O)N[C@@H](CC(C)C)C(=O)N[C@@H](CCSC)C(=O)N[C@@H](Cc1c[nH]cn1)C(=O)N[C@@H](CCC(N)=O)C(=O)N[C@@H](CCCCNC(=N)N)C(=O)N[C@@H](C)C(=O)N[C@@H](CCCCN)C(=O)N[C@@H](Cc1c[nH]c2ccccc12)C(=O)N[C@@H](CC(C)C)C(=O)N[C@@H](CC(N)=O)C(=O)N[C@@H](CO)C(=O)N[C@@H](CCSC)C(=O)N[C@@H](CCCNC(=N)N)C(=O)N[C@@H](CCCNC(=N)N)C(=O)N[C@H](C(=O)N[C@@H](CCC(=O)O)C(=O)N[C@@H](Cc1c[nH]c2ccccc12)C(=O)N[C@@H](CC(C)C)C(=O)N[C@@H](CCCNC(=N)N)C(=O)N[C@@H](CCCCN)C(=O)N[C@@H](CCCCN)C(=O)N[C@@H](CC(C)C)C(N)=O)C(C)C

These binders were tested against T1, human parathyroid hormone receptor … (assay: screen, binding to human PIR R0 relative to parent PTHrP(1-28)NH; footnote not given).

human PIR R0 (% parent) | Binder
160 | AVSEHQLLHDKGKSIQDARRRAFLHALI-NH2 [A18,22,26-PTHrP(1-28)NH]
15 | AVSEHQLLHDKGKSIQDARRRSFLHKLI-NH2 [A18,S22,K26-PTHrP(1-28)NH]
136 | AVSEHQLLHDKGKSIQDARRRWFLHKLI-NH2 [A18,W22,K26-PTHrP(1-28)NH]
64.4 | AVSEHQLLHDKGKSIQDERRRLFLHKLI-NH2 [E18,L22,K26-PTHrP(1-28)NH]
133 | AVSEHQLLHDKGKSIQDARRRSFLHALI-NH2 [A18,26,S22-PTHrP(1-28)NH]
160 | AVSEHQLLHDKGKSIQDARRRLFLHKLI-NH2 [A18,L22,K26-PTHrP(1-28)NH]
120 | AVSEHQLLHDKGKSIQDERRRKFLHKLI-NH2 [E18,K22,26-PTHrP(1-28)NH]
136 | AVSEHQLLHDKGKSIQDARRRNFLHALI-NH2 [A18,26,N22-PTHrP(1-28)NH]
139 | AVSEHQLLHDKGKSIQDARRRNFLHKLI-NH2 [A18,N22,K26-PTHrP(1-28)NH]
53.7 | AVSEHQLLHDKGKSIQDERRRNFLHALI-NH2 [E18,N22,A26-PTHrP(1-28)NH]
18.8 | AVSEHQLLHDKGKSIQDERRRWFLHALI-NH2 [E18,W22,A26-PTHrP(1-28)NH]
46.6 | AVSEHQLLHDKGKSIQDERRRWFLHKLI-NH2 [E18,W22,K26-PTHrP(1-28)NH]
31.9 | AVSEHQLLHDKGKSIQDERRRSFLHALI-NH2 [E18,S22,A26-PTHrP(1-28)NH]
133 | AVSEHQLLHDKGKSIQDARRRLFLHALI-NH2 [A18,26,L22-PTHrP(1-28)NH]
126 | AVSEHQLLHDKGKSIQDARRRWFLHALI-NH2 [A18,26,W22-PTHrP(1-28)NH]
106 | AVSEHQLLHDKGKSIQDERRRKFLHALI-NH2 [E18,K22,A26-PTHrP(1-28)NH]
84.4 | AVSEHQLLHDKGKSIQDERRRNFLHKLI-NH2 [E18,N22,K26-PTHrP(1-28)NH]
52.5 | AVSEHQLLHDKGKSIQDERRRLFLHALI-NH2 [E18,L22,A26-PTHrP(1-28)NH]

The binders below were run against T1, human parathyroid hormone receptor … (assay: cell-based or functional assay).

cAMP in HKRK-B7 cells, EC50 [nM] | cAMP in HKRK-B7 cells, Max [pm/well] | Binder
3.25 | 65.5 | AVAEIQLMHQRAKWLNSMRRVEWLRKKLQDVHNF-OH [Mc-hPTH(1-34)OH]
1.76 | 63.8 | B1

The binders below were run against T1, human parathyroid hormone receptor … (assay: competition radioligand binding, hPTHR R0 conformation).
Protocol: (§1) Binding Studies. Binding studies were performed using cell membranes as described (Dean et al., Mol Endocrinol 20(4):931-43 (2006)). […] Reactions contained a total membrane protein concentration of 20 to 100 μg/mL, and a total radioactivity concentration of approximately 150,000 cpm/ml. Unlabeled peptide ligands and/or GTPγS (Sigma-Aldrich Inc. St. Louis, Mo.) were added to the reactions as indicated. At the end of the reaction, bound and free radioligand were separated by vacuum filtration using a 96-well vacuum filter plate and vacuum filter apparatus (Multi-Screen system with Durapore HV, […] filters; Millipore Corp., Milford, Mass.); the air-dried filters were then detached from the plate and counted for gamma radioactivity using a gamma counter.
(§2) To assess the capacities of various unlabeled peptide ligands to bind to the G protein-uncoupled and G protein-coupled PTHR conformations (R⁰ and RG, respectively), membranes were prepared from transiently transfected COS-7 cells and the following assay conditions.

IC50 [nM] | Binder
144 | AVSEHQLLHDKGKSIQDARRRAFLLKLIAE-NH2 [A18,22,L25,K26-PTHrP(1-30)NH]
1740 | AVSEHQLLHDKGKSIQDERRRAFLLKLI-NH2 (also called EALK-PTHrP(1-28)) [E18,A22,L25,K26-PTHrP(1-28)NH]

The binders below were run against T1, human parathyroid hormone receptor … (assay: competition radioligand binding, human PIR R0).
Protocol: as §1, §2

IC50 [nM] | Binder
144 | AVSEHQLLHDKGKSIQDARRRAFLLKLIAE-NH2 [A18,22,L25,K26-PTHrP(1-30)NH]
540 | AVSEHQLLHDKGKSIQDARRRSFLLKLI-NH2 [A18,S22,L25,K26-PTHrP(1-28)NH]
2060 | AVSEHQLLHDKGKSIQDERRRSFLLKLI-NH2 [E18,S22,L25,K26-PTHrP(1-28)NH]
1740 | AVSEHQLLHDKGKSIQDERRRAFLLKLI-NH2 (also called EALK-PTHrP(1-28)) [E18,A22,L25,K26-PTHrP(1-28)NH]

These binders were tested against T2, rat parathyroid hormone receptor (PTHR) (assay: cell-based or functional assay).

acute cAMP in ROS17/2.8 cells, EC50 (FIG. 21A) [nM] | cAMP in ROS17/2.8 cells, EC50 [nM] | IP3 formation, fold less potent than M-PTH(1-28) [fold] | Binder
0.33 | 0.37 | – | B2
7.6 | 7.39 | – | SVSEIQLMHNLGKHLNSMERVEWLRKKL-NH2 [hPTH(1-28)NH2]
– | – | 100 | WV[Aib]EIQLMHQ[hArg]AKWLNSMRRVEWLRKKL [Trp^1-M-PTH(1-28)]

These binders were tested against T1, human parathyroid hormone receptor … (assay: screen, binding to human PIR RG relative to parent PTHrP(1-28)NH; footnote not given).

human PIR RG (% parent) | Binder
167 | AVSEHQLLHDKGKSIQDARRRAFLHALI-NH2 [A18,22,26-PTHrP(1-28)NH]
175 | AVSEHQLLHDKGKSIQDARRRSFLHKLI-NH2 [A18,S22,K26-PTHrP(1-28)NH]
115 | AVSEHQLLHDKGKSIQDARRRWFLHKLI-NH2 [A18,W22,K26-PTHrP(1-28)NH]
152 | AVSEHQLLHDKGKSIQDERRRLFLHKLI-NH2 [E18,L22,K26-PTHrP(1-28)NH]
148 | AVSEHQLLHDKGKSIQDARRRSFLHALI-NH2 [A18,26,S22-PTHrP(1-28)NH]
177 | AVSEHQLLHDKGKSIQDARRRLFLHKLI-NH2 [A18,L22,K26-PTHrP(1-28)NH]
208 | AVSEHQLLHDKGKSIQDERRRKFLHKLI-NH2 [E18,K22,26-PTHrP(1-28)NH]
161 | AVSEHQLLHDKGKSIQDARRRNFLHALI-NH2 [A18,26,N22-PTHrP(1-28)NH]
172 | AVSEHQLLHDKGKSIQDARRRNFLHKLI-NH2 [A18,N22,K26-PTHrP(1-28)NH]
140 | AVSEHQLLHDKGKSIQDERRRNFLHALI-NH2 [E18,N22,A26-PTHrP(1-28)NH]
116 | AVSEHQLLHDKGKSIQDERRRWFLHALI-NH2 [E18,W22,A26-PTHrP(1-28)NH]
149 | AVSEHQLLHDKGKSIQDERRRWFLHKLI-NH2 [E18,W22,K26-PTHrP(1-28)NH]
132 | AVSEHQLLHDKGKSIQDERRRSFLHALI-NH2 [E18,S22,A26-PTHrP(1-28)NH]
163 | AVSEHQLLHDKGKSIQDARRRLFLHALI-NH2 [A18,26,L22-PTHrP(1-28)NH]
120 | AVSEHQLLHDKGKSIQDARRRWFLHALI-NH2 [A18,26,W22-PTHrP(1-28)NH]
192 | AVSEHQLLHDKGKSIQDERRRKFLHALI-NH2 [E18,K22,A26-PTHrP(1-28)NH]
147 | AVSEHQLLHDKGKSIQDERRRNFLHKLI-NH2 [E18,N22,K26-PTHrP(1-28)NH]
125 | AVSEHQLLHDKGKSIQDERRRLFLHALI-NH2 [E18,L22,A26-PTHrP(1-28)NH]

What follows are binders tested against T1, human parathyroid hormone receptor … (assay: ratio of R0 IC50 to RG IC50, hPTHR).

R0/RG selectivity | Binder
18300 | AVSEHQLLHDKGKSIQDERRRAFLLKLI-NH2 (also called EALK-PTHrP(1-28)) [E18,A22,L25,K26-PTHrP(1-28)NH]

The binders below were run against T1, human parathyroid hormone receptor … (assay: competition radioligand binding, hPTHR RG conformation).
Protocol: as §1, §2

IC50 [nM] | Binder
0.05 | AVSEHQLLHDKGKSIQDARRRAFLLKLIAE-NH2 [A18,22,L25,K26-PTHrP(1-30)NH]
0.1 | AVSEHQLLHDKGKSIQDERRRAFLLKLI-NH2 (also called EALK-PTHrP(1-28)) [E18,A22,L25,K26-PTHrP(1-28)NH]

The binders below were run against T1, human parathyroid hormone receptor … (assay: competition radioligand binding, human PIR RG).
Protocol: as §1, §2

IC50 [nM] | Binder
0.05 | AVSEHQLLHDKGKSIQDARRRAFLLKLIAE-NH2 [A18,22,L25,K26-PTHrP(1-30)NH]
0.1 | AVSEHQLLHDKGKSIQDARRRSFLLKLI-NH2 [A18,S22,L25,K26-PTHrP(1-28)NH]
0.11 | AVSEHQLLHDKGKSIQDERRRSFLLKLI-NH2 [E18,S22,L25,K26-PTHrP(1-28)NH]
0.1 | AVSEHQLLHDKGKSIQDERRRAFLLKLI-NH2 (also called EALK-PTHrP(1-28)) [E18,A22,L25,K26-PTHrP(1-28)NH]

Each binder was assayed against T1, human parathyroid hormone receptor … (assay: competition radioligand binding, human PTH1 receptor R0).
Protocol: as §1, §2

IC50 [nM] | Binder
197 | B1
